In paper PMC4474691, “Leukemia-Associated Mutations in Nucleophosmin Alter Recognition by CRM1: Molecular Basis of Aberrant Transport” (PLoS ONE, 2015):

Molecular target: T1, CRM1^HA (Mus musculus, UniProt Q6P5F9, L431A/V430A/V432A)
T1 construct: His-ZZ (cleaved yes); made in house; host or cells: Escherichia coli BL21-CodonPlus (DE3)
Experiment: Isothermal titration calorimetry, CRM1^HA / NES
Type: binding
Settings: ITC, TFP-NES titrated onto CRM1^HA, 20°C, 20 mM HEPES pH 7.4; rounded; read-out: KD
Description: Isothermal titration calorimetry (ITC)
ITC measurements were carried out using a VIP-ITC MicroCalorimeter (MicroCal, Inc., Northampton, MA). TFP and YFP constructs, as well as CRM1^HA, were dialyzed in a buffer containing 20 mM HEPES, pH 7.4, 50 mM NaCl, 1 mM TCEP, 1 mM MgCl2, and degassed prior to the experiment. Untagged peptides (AS: QDLCLAVEEVSLRK, AL: EAIQDLCLAVEEVSLRK, ES: QDLWQSLAQVSLRK and EL: EAIQDLWQSLAQVSLRK), N-acetylated and 95% pure, were purchased from Proteogenix (Schiltigheim, France) and resuspended in the ITC buffer. Measurements were performed at 20°C. TFP-NES, YFP-NES or NES peptides at 35–180 μM were titrated onto CRM1^HA at 2–14 μM. Injections of 6 μL were performed at 320 seconds interval (the first injection always was of 1 μL and is not considered in data analysis). […]
The reaction heat of each injection is related to the calorimetric enthalpy of binding, ΔH^0. The binding isotherms, ΔH^0 vs. molar ratio, were analyzed with an independent binding sites model using MicroCal Origin software. […] The Gibbs free energy of binding ΔG^0 and the entropy ΔS^0 are determined from the basic thermodynamic expressions: ΔG^0 = -RTlnKA = ΔH^0−TΔS^0, where R and T are the gas constant and the absolute temperature, respectively. […]

T1 sequence (Q6P5F9 1-1062 V430A/L431A/V432A limits assumed): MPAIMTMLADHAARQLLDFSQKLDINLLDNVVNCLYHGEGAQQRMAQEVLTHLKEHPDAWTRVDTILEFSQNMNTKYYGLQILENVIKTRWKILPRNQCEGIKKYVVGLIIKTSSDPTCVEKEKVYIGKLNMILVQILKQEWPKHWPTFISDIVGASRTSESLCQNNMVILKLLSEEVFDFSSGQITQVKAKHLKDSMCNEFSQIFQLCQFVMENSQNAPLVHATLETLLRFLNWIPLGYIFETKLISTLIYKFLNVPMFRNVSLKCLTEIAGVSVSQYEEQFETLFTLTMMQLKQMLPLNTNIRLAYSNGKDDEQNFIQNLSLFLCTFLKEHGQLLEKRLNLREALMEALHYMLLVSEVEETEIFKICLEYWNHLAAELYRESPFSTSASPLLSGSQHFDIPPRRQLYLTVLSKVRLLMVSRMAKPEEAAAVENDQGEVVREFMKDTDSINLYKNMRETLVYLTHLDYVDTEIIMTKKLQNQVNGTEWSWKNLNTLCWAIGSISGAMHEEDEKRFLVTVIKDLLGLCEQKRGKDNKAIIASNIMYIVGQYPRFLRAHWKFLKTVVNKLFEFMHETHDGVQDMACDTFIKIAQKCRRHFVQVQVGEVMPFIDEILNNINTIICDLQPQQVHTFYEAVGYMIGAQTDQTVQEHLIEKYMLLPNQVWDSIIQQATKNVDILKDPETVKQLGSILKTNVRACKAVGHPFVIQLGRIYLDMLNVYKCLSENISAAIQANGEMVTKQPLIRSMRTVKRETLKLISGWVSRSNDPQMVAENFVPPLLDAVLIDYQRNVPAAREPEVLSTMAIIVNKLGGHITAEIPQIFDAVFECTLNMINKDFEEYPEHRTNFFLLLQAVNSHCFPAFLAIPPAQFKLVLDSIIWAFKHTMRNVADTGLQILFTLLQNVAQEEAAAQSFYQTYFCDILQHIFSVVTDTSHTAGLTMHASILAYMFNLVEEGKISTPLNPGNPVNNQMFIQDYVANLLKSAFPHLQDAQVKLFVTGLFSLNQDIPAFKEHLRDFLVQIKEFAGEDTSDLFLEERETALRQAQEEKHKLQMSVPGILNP

| Molecule | Kd |
| --- | --- |
| NPMmutE: AML-associated NPM mutant E; in b62 the value is for its NES as TFP construct (protein, full-length mutant E, pentamer (SEC); for the b62 value only the NES DLWQSLAQVSLRK as TFP fusion was assayed) MEDSMDMDMSPLRPQNYLFGCELKADKDYHFKVDNDENEHQLSLRTVSLGAGAKDELHIVEAEAMNYEGSPIKVTLATLKMSVQPTVSLGGFEITPPVVLRLKCGSGPVHISGQHLVAVEEDAESEDEEEEDVKLLSISGKRSAPGGGSKVPQKKVKLAADEDDDDDDEEDDDEDDDDDDFDDEEAEEKAPVKKSIRDTPAKNAQKSNQNGKDSKPSSTPRSKGQESFKKQEKTPKTPKGPSSVEDIKAKMQASIEKGGSLPKVEAKFINYVKNCFRMTDQEAIQDLWQSLAQVSLRK | 1 µM |
| NPMmutA: AML-associated NPM mutant A; in b62 the value is for its NES as TFP construct (protein, full-length mutant A, pentamer (SEC); for the b62 value only the NES DLCLAVEEVSLRK as TFP fusion was assayed) MEDSMDMDMSPLRPQNYLFGCELKADKDYHFKVDNDENEHQLSLRTVSLGAGAKDELHIVEAEAMNYEGSPIKVTLATLKMSVQPTVSLGGFEITPPVVLRLKCGSGPVHISGQHLVAVEEDAESEDEEEEDVKLLSISGKRSAPGGGSKVPQKKVKLAADEDDDDDDEEDDDEDDDDDDFDDEEAEEKAPVKKSIRDTPAKNAQKSNQNGKDSKPSSTPRSKGQESFKKQEKTPKTPKGPSSVEDIKAKMQASIEKGGSLPKVEAKFINYVKNCFRMTDQEAIQDLCLAVEEVSLRK | 2.4 µM |
